Here are results for three molecules from article PMC5623693, “Rb‐independent E2F3 promotes cell proliferation and alters expression of genes involved in metabolism and inflammation” (FEBS Open Bio, 2017).

No end group written: not given here. *: point of attachment. 5‑TAMRA = CN(C)c1ccc2c(-c3ccc(C(=O)*)cc3C(=O)[O-])c3ccc(N(C)C)cc3[o+]c2c1

Common to all, as to assay: fluorescence polarisation; TAMRA-labeled peptide (100 nM stock, 1 uL in 10 uL final) with purified protein serially diluted 1:2; 20 mM HEPES, 100 mM KCl, 0.1% Tween-20, 5 mM DTT, pH 7.8; 20 min in the dark at room temperature; Kd by Michaelis-Menten equation, least-squares nonlinear regression
The target in test [1] is Tamra-labeled E2F1-mutant peptide (L415Q) (human).
In test [2] the target is Tamra-labeled E2F1 WT peptide (human).
The next test deals with T1, GST-pRb (aa379-928) (UniProt P06400 379-928).
T1 construct: retinoblastoma protein pRb, residues 379-928
T1 sequence (looked up): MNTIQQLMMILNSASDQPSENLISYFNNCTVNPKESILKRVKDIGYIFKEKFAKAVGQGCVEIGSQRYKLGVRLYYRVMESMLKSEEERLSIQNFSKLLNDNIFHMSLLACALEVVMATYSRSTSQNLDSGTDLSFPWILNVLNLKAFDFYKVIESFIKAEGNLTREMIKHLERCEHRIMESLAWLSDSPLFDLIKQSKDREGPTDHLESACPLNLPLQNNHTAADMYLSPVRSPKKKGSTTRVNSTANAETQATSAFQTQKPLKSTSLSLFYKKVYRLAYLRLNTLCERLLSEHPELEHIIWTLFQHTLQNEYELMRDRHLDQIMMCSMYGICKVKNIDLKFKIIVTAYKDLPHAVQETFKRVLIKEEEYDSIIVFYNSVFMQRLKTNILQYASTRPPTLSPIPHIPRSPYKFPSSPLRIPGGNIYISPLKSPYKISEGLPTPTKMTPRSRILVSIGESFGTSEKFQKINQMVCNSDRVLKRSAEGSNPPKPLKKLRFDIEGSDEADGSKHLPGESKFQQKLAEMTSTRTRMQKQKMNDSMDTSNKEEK
The conditions noted are these: both partners purified.

As for “HIS-p107 (aa379-1104) (domain or fragment)”, the values for the Kd in test [1] and in test [2] were 200 µM and 7 µM, respectively.

B1: Tamra-labeled E2F1 WT peptide (peptide)
peptide: {5‑TAMRA}-EALDYHFGLEEGEGIRDLFDCDFG
notes: L415 is the ninth letter; also called WT E2F1 peptide; E2F1 C-terminal peptide; source: synthetic peptide (United BioSystems)
In turn, B1 displayed a Kd in the test with GST-pRb (aa379-928) of roughly 3 µM.

B2: Tamra-labeled E2F1-mutant peptide (L415Q) (peptide)
peptide: {5‑TAMRA}-EALDYHFGQEEGEGIRDLFDCDFG
notes: also called E2F1 L415Q peptide; LQ; source: synthetic peptide (Peptide 2.0)
Regarding B2, the Kd with GST-pRb (aa379-928) worked out at 20 µM.

One may read the Kd as the constant that tells how readily two partners part at equilibrium.
